# Source: PMC5384083
# Experiments:
# DNMT3b, endogenous = DNMT3b, endogenous (UniProt Q9UBC3); test: co-immunoprecipitation (IP GFP, western blot DNMT3b), band intensity given; conditions: MCF7 cells
# [1] = molecular target: Retinoblastoma protein (Rb), endogenous (UniProt P06400); test: co-immunoprecipitation (IP GFP, western blot Rb), band intensity given; conditions: MCF7 cells
# CBP, endogenous [2] = molecular target: CBP, endogenous (UniProt Q92793); test: co-immunoprecipitation (IP GFP, western blot CBP) quantified with image J; conditions: MCF7 cells; 3 independent experiments; parent: est. 25; read off a plot
# [3] = molecular target: Retinoblastoma protein (Rb), endogenous (UniProt P06400); test: co-immunoprecipitation (IP GFP, western blot Rb) quantified with image J; conditions: MCF7 cells; 3 independent experiments; parent: est. 32; read off a plot
# CBP, endogenous [4] = molecular target: CBP, endogenous (UniProt Q92793); test: co-immunoprecipitation (IP GFP, western blot CBP), band intensity given; conditions: MCF7 cells
# Chain of UniProt Q92793 (Q92793 whole entry): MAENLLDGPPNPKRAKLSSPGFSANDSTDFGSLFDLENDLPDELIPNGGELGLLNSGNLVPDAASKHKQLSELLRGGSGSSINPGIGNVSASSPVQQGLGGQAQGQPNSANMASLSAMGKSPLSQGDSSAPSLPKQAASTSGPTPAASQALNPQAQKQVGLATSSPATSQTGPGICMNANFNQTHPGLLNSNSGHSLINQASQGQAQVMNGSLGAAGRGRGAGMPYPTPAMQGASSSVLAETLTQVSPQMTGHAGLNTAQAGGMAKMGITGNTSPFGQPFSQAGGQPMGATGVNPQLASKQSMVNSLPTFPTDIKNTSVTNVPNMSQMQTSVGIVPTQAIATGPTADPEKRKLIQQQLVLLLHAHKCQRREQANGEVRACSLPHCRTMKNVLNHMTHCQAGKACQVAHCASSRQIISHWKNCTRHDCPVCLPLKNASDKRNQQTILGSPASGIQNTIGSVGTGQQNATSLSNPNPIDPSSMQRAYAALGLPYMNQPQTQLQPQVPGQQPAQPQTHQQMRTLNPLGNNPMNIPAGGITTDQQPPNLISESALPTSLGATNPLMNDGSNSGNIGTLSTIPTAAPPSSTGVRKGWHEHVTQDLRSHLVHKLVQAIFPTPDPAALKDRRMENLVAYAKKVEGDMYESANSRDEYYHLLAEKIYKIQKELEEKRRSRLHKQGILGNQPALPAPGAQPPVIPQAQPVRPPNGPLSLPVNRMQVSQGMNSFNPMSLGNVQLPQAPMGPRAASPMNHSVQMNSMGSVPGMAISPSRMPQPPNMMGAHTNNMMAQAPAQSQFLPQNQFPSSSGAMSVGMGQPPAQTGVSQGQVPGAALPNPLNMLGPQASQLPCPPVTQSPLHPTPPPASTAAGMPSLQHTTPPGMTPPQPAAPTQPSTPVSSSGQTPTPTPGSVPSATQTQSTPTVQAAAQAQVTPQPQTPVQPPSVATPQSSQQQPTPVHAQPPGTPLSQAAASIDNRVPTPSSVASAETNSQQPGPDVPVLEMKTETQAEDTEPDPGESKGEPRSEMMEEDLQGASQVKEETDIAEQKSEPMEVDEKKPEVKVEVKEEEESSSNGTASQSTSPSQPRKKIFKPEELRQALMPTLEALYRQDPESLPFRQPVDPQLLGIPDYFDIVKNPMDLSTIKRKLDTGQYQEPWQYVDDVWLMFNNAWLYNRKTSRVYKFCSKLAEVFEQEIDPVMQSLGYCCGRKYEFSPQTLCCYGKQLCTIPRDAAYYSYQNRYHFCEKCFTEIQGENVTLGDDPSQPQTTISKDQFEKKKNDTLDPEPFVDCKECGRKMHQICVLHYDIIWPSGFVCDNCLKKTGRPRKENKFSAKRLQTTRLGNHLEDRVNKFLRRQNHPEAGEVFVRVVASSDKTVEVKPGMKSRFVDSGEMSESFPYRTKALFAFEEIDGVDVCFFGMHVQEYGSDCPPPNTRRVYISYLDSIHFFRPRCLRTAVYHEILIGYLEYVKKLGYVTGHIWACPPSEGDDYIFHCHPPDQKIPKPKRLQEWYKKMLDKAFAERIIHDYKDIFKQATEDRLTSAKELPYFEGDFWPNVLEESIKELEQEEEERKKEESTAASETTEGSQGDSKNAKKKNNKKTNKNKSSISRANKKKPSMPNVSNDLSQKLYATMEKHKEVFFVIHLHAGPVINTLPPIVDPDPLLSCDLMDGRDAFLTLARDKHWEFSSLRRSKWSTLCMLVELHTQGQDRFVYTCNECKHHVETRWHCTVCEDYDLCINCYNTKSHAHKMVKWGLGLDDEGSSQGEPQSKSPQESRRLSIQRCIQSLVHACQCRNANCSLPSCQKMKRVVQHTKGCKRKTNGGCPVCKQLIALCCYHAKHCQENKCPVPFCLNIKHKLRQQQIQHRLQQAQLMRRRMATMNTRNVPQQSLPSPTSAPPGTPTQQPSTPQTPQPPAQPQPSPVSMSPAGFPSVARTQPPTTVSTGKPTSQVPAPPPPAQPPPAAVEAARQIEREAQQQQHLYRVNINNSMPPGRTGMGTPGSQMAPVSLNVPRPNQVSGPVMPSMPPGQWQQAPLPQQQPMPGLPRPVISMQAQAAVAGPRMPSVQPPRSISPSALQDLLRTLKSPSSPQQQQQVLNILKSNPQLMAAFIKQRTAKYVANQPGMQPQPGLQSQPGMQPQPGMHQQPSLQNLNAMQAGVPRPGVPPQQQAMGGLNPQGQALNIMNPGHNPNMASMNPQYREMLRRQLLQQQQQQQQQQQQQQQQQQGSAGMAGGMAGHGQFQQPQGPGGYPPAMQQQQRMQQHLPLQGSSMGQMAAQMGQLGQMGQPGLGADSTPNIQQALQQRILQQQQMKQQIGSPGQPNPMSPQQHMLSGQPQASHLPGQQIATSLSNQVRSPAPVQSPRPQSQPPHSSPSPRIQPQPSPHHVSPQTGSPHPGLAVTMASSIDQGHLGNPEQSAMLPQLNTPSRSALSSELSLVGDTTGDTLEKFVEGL
# Chain of UniProt P06400 (P06400 whole entry): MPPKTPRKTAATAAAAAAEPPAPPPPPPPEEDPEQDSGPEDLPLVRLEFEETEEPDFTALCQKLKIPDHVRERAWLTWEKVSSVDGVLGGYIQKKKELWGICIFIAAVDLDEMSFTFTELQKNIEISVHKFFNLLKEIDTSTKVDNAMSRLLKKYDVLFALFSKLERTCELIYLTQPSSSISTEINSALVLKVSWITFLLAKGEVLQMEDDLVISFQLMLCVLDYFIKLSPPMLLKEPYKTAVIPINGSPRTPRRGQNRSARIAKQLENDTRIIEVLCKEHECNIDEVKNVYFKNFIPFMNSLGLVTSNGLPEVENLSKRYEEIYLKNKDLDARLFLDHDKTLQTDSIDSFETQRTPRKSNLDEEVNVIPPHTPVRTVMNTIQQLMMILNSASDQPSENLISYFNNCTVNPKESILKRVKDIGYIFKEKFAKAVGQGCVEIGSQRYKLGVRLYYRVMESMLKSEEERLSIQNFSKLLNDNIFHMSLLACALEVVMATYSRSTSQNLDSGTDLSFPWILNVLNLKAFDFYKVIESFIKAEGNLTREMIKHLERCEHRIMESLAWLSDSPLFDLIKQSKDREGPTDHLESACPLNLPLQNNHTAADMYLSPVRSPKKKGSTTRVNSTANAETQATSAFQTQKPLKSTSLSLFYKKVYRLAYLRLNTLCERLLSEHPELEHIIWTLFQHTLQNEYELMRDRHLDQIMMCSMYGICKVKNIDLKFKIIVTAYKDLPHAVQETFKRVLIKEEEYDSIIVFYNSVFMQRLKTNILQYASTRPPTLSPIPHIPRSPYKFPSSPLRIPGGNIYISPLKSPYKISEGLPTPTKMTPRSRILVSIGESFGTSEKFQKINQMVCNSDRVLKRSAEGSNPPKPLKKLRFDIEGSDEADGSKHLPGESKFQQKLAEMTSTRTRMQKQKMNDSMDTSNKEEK
"response (DNMT3b, endogenous)",response [1],"response (fold pull down) (CBP, endogenous [2])",response (fold pull down) [3],"response (CBP, endogenous [4])",Substance
90,24.7,9.7,36,6,GFP-FoxM1 full length (FL) S715A; S724A
32.3,6.7,31,5.8,21,GFP-FoxM1 full length (FL) S715D; S724D
112,30.4,8.4,38,5.1,GFP-FoxM1 full length (FL) T596A
